In test [1] the target is inhibitor of growth 2 (ING2) PHD finger. The experiment in a line: ITC.
Test [2] addresses JMJD2A double tudor domain (UniProt O75164). The experiment in a line: ITC.
Test [3] concerns the target RAG2 PHD finger, 414-487 (UniProt P21784). Briefly: ITC with soluble peptides. Conditions: reference: unphosphorylated H3K4me3 peptide.
The target of test [4] is ING2 PHD finger (UniProt Q9H160). The experiment in a line: ITC with soluble peptides. The conditions noted are these: reference: H3K4me3 peptide; sites T3.

JMJD2A double tudor domain, sequence (O75164 895-1011): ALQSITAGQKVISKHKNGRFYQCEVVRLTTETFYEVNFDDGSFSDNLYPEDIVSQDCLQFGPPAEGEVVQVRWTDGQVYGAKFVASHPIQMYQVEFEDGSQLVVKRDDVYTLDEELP

For H3K4me3T6ph peptide (ITC), the Kd was 19.9 µM in test [1] and 1.8 µM in test [2].
“histone H3 (from UniProt P68431) H3K4me3 peptide with T3ph”: the values for the KD entry in test [3] (sites T3) and in test [4] were “lost; reference 17.8” and “lost; reference 0.98”, respectively.
As for “histone H3 (from UniProt P68431) H3K4me3 peptide with T6ph”, the KD entry in test [3] (sites T6) is “lost; reference 17.8”.

These data come from paper PMC2922993.
